Results as given in the supplement of paper PMC10065799, “High-throughput profiling of sequence recognition by tyrosine kinases and SH2 domains using bacterial peptide display” (eLife, 2023).

system: AncSZ; assay: phosphorylation enrichment, bacterial display (enrichment ratio); higher = better substrate or ligand; peptides without Tyr show the background
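Also: 11-residue human phosphosite peptides and single-mutation variants displayed on the E. coli surface, counted by deep sequencing, each peptide's frequency after selection divided by its frequency in the unselected input library; frequency after pTyr selection over input frequency; kinase dosed for 20-30% of maximal phosphorylation in three min.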

Sequence	phosphorylation enrichment
EKKKYYDTKIE [CASP5_Y104]	0.863
FADIAYNYRQG [PAH_Y166_H170Q]	0.75
PQDVTYARLHS [LILRB4_Y412_Q414R]	0.757
AIGCEYSEINI [SIGLEC12_Y588_Y586C]	1.94
HFIKLYEEKTG [PARP1_Y618_M615I]	1.69
TENAGYFFRIS	1.52
KKYFSYAWPFY [BRDT_Y291_H288Y]	0.937
SSTASYFKAPG [RFX2_Y108_E110K]	0.598
LSNFNYEQRGA [API5_Y497_G493S]	1.21
DAMQTYNGNDE [TSPAN7_Y131]	1.01
LPSKDYAEVRR [HP_Y272_G276R]	0.598
NTGVFYDLFGG [PTPN11_Y63_D61V_YF]	0.99
NFDRVYIYHLR [MYOF_Y1137]	1.19
GIVEDYRPPFC [ACVRL1_Y421_Y426C]	0.994
ISIFHCAKGQP [MPZ_Y82_Y82C]	1.33
NFGTNYRVGSS [CPO_Y278_K273N_YF]	0.602
GACGGYCSVLG [RAB18_Y202]	0.533
PLFKIYVAELI [MRPL28_Y230]	2.14
DKATEYIQYVR [MAX_Y70_M74V]	0.983
DPHKIFEFVNS [IRF3_Y107_Y107F]	0.791
LERYIYNPEEF [HLA-DPB1_Y59_R61P]	1.48
RVLKLYGCSPS [ASTL_Y279]	1.03

biological target: EPHB1 (UniProt P54762); assay: as above
Sequence (P54762 whole entry, looked up): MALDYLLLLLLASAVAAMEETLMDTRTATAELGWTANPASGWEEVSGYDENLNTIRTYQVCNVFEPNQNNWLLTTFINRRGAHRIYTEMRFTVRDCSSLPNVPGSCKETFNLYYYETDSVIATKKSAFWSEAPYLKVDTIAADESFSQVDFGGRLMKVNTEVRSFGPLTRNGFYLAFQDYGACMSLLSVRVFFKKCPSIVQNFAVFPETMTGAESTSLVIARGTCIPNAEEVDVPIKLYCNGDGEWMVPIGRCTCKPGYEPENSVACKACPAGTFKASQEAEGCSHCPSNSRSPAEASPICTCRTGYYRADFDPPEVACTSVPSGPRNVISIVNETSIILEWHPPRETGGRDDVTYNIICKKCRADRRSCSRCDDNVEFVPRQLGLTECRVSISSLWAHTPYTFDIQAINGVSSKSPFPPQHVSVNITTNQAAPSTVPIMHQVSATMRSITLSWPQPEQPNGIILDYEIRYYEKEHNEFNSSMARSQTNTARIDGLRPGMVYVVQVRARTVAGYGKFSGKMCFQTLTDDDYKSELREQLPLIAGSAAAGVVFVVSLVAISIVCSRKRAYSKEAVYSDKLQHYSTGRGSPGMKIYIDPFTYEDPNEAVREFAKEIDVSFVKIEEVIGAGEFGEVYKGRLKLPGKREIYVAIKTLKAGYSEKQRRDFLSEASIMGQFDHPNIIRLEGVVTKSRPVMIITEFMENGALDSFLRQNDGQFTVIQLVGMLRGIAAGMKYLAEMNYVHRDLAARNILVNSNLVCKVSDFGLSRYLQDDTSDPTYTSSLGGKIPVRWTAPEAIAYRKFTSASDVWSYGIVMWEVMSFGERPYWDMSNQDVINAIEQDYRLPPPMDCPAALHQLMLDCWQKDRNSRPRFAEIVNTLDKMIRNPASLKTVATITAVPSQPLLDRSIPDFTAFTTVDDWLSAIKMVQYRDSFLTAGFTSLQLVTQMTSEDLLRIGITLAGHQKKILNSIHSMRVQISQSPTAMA

Sequence	phosphorylation enrichment
EKKKYYDTKIE [CASP5_Y104]	0.366
FADIAYNYRQG [PAH_Y166_H170Q]	0.713
PQDVTYARLHS [LILRB4_Y412_Q414R]	0.808
AIGCEYSEINI [SIGLEC12_Y588_Y586C]	1.24
HFIKLYEEKTG [PARP1_Y618_M615I]	1.17
TENAGYFFRIS	0.733
KKYFSYAWPFY [BRDT_Y291_H288Y]	0.497
SSTASYFKAPG [RFX2_Y108_E110K]	0.471
LSNFNYEQRGA [API5_Y497_G493S]	0.796
DAMQTYNGNDE [TSPAN7_Y131]	0.637
LPSKDYAEVRR [HP_Y272_G276R]	1.48
NTGVFYDLFGG [PTPN11_Y63_D61V_YF]	0.609
NFDRVYIYHLR [MYOF_Y1137]	0.593
GIVEDYRPPFC [ACVRL1_Y421_Y426C]	0.511
ISIFHCAKGQP [MPZ_Y82_Y82C]	0.773
NFGTNYRVGSS [CPO_Y278_K273N_YF]	0.417
GACGGYCSVLG [RAB18_Y202]	0.358
PLFKIYVAELI [MRPL28_Y230]	0.919
DKATEYIQYVR [MAX_Y70_M74V]	0.519
DPHKIFEFVNS [IRF3_Y107_Y107F]	0.54
LERYIYNPEEF [HLA-DPB1_Y59_R61P]	0.783
RVLKLYGCSPS [ASTL_Y279]	0.634

biological target: EPHB2 (UniProt P29323); assay: as above
Sequence (P29323 whole entry, looked up): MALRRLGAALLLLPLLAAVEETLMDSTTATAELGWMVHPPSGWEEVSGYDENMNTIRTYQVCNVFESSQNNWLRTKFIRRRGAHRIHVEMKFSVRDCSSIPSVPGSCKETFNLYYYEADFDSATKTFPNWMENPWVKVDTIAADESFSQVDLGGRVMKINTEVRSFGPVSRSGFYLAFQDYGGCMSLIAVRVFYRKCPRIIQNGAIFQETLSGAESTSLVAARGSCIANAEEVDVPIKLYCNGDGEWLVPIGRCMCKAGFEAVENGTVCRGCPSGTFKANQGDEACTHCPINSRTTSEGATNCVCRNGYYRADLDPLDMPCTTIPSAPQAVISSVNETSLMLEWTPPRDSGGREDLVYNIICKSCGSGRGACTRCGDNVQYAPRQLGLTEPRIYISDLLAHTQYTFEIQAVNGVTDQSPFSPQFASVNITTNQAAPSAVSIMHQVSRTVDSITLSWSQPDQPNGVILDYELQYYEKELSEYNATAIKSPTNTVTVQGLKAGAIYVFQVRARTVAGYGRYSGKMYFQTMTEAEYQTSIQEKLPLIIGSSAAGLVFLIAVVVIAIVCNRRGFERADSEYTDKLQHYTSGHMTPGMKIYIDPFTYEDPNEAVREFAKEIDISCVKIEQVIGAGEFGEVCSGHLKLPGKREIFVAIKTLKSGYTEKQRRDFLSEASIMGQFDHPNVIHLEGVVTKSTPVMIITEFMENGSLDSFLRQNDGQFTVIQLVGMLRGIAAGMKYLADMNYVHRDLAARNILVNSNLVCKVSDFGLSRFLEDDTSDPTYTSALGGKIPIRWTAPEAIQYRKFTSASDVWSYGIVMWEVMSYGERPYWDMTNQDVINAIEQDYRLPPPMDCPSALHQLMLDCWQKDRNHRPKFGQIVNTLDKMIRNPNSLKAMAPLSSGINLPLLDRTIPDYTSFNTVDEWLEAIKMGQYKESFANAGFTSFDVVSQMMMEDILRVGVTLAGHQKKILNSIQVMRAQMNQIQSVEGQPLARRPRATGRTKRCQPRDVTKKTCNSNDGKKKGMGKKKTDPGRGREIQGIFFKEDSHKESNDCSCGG

Sequence	phosphorylation enrichment
EKKKYYDTKIE [CASP5_Y104]	0.518
FADIAYNYRQG [PAH_Y166_H170Q]	0.454
PQDVTYARLHS [LILRB4_Y412_Q414R]	0.797
AIGCEYSEINI [SIGLEC12_Y588_Y586C]	0.797
HFIKLYEEKTG [PARP1_Y618_M615I]	1.08
TENAGYFFRIS	0.703
KKYFSYAWPFY [BRDT_Y291_H288Y]	0.452
SSTASYFKAPG [RFX2_Y108_E110K]	0.394
LSNFNYEQRGA [API5_Y497_G493S]	1.15
DAMQTYNGNDE [TSPAN7_Y131]	0.576
LPSKDYAEVRR [HP_Y272_G276R]	0.638
NTGVFYDLFGG [PTPN11_Y63_D61V_YF]	0.986
NFDRVYIYHLR [MYOF_Y1137]	0.618
GIVEDYRPPFC [ACVRL1_Y421_Y426C]	0.532
ISIFHCAKGQP [MPZ_Y82_Y82C]	0.845
NFGTNYRVGSS [CPO_Y278_K273N_YF]	0.515
GACGGYCSVLG [RAB18_Y202]	0.352
PLFKIYVAELI [MRPL28_Y230]	0.772
DKATEYIQYVR [MAX_Y70_M74V]	0.582
DPHKIFEFVNS [IRF3_Y107_Y107F]	0.539
LERYIYNPEEF [HLA-DPB1_Y59_R61P]	0.965
RVLKLYGCSPS [ASTL_Y279]	0.761

biological target: FGFR1 (UniProt P11362); assay: as above
Sequence (P11362 whole entry, looked up): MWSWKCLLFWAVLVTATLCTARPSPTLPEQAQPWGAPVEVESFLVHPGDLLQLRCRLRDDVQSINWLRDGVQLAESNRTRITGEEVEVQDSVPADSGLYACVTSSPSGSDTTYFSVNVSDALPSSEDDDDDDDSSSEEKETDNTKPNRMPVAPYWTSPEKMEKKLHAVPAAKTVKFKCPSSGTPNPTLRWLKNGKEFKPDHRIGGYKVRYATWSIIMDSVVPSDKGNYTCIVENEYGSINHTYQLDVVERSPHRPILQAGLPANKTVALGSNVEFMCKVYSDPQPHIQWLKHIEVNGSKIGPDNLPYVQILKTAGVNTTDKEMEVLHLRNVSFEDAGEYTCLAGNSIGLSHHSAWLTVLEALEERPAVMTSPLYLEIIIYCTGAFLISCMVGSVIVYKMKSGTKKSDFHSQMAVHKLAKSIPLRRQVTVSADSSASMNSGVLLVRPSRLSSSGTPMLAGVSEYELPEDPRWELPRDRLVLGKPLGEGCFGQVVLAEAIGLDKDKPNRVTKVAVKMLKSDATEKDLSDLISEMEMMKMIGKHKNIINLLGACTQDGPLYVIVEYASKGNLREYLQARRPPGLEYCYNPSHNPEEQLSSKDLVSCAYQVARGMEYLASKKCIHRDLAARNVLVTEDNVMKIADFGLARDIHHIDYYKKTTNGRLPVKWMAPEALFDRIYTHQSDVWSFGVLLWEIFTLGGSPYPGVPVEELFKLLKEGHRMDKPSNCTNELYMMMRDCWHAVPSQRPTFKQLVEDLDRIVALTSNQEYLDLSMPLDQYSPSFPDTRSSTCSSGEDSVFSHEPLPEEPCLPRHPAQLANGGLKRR

Sequence	phosphorylation enrichment
EKKKYYDTKIE [CASP5_Y104]	0.365
FADIAYNYRQG [PAH_Y166_H170Q]	0.412
PQDVTYARLHS [LILRB4_Y412_Q414R]	0.774
AIGCEYSEINI [SIGLEC12_Y588_Y586C]	3.95
HFIKLYEEKTG [PARP1_Y618_M615I]	0.456
TENAGYFFRIS	0.511
KKYFSYAWPFY [BRDT_Y291_H288Y]	0.475
SSTASYFKAPG [RFX2_Y108_E110K]	0.548
LSNFNYEQRGA [API5_Y497_G493S]	0.918
DAMQTYNGNDE [TSPAN7_Y131]	0.508
LPSKDYAEVRR [HP_Y272_G276R]	0.712
NTGVFYDLFGG [PTPN11_Y63_D61V_YF]	0.455
NFDRVYIYHLR [MYOF_Y1137]	0.575
GIVEDYRPPFC [ACVRL1_Y421_Y426C]	0.598
ISIFHCAKGQP [MPZ_Y82_Y82C]	0.729
NFGTNYRVGSS [CPO_Y278_K273N_YF]	0.508
GACGGYCSVLG [RAB18_Y202]	0.435
PLFKIYVAELI [MRPL28_Y230]	0.806
DKATEYIQYVR [MAX_Y70_M74V]	0.506
DPHKIFEFVNS [IRF3_Y107_Y107F]	0.643
LERYIYNPEEF [HLA-DPB1_Y59_R61P]	0.875
RVLKLYGCSPS [ASTL_Y279]	0.367
